Data from patent US20190367619A1 (ARGENX, published 2019).

T1: recombinant human galectin-10, TEV-cleaved (human, UniProt Q05315 1-142)
T1 sequence: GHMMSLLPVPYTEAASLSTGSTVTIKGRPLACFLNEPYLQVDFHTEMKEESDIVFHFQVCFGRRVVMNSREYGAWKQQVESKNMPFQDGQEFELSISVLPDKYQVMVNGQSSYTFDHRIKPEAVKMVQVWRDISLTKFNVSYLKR

T2: human galectin-10-His (human)
T2 construct: The last M of the tag may be Met1 of galectin-10; also called humanGal10-His; hGal10
T2 chain: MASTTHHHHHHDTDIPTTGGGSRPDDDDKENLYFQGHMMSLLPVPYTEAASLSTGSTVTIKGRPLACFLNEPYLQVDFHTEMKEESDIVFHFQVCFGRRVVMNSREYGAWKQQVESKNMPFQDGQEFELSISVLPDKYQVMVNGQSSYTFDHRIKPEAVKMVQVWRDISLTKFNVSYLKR

T3: TEV-cleaved wild-type recombinant human galectin-10 (soluble, in Fab complexes, or as recombinant galectin-10 … (human, UniProt Q05315 1-142))
T3 sequence: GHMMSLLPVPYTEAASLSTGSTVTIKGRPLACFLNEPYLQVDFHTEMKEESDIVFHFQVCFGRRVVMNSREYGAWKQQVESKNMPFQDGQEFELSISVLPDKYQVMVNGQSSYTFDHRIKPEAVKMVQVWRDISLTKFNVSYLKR

T4: human galectin-10-His (recombinant human galectin-10 with TEV-cleavable N-terminal His-tag) (human)
T4 construct: SEC-MALLS: dimer in solution; also called Gal10-His; humanGal10-His
T4 chain: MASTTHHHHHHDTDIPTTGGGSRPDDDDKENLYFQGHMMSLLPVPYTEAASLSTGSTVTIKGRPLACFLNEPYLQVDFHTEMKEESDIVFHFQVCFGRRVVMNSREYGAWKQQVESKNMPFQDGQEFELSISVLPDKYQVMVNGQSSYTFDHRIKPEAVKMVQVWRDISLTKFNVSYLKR


How the values were obtained:
[1] = molecular target: T1, recombinant human galectin-10, …; experiment: cell-based or functional assay
human galectin-10-His [2] = molecular target: T2, human galectin-10-His; experiment: ELISA, galectin-10-His coated at 1 ug/mL, Fab
Experimental: The binding capacity of the lead anti-galectin-10 Fabs was tested by binding ELISA. Briefly, a Maxisorp plate was coated overnight with 1 μg/mL of human galectin-10-His. Then a serial dilution of each clone (from 4 μM, dilution 1/4, 12 points of dilutions) was incubated on coated galectin-10. After several washing steps, detection of the bound Fab was carried out with an anti-human IgG Fab specific-peroxidase. Absorbance was measured at 450 nm (reference at 620 nm) with Tecan instrument.

[3] = molecular target: T3, TEV-cleaved wild-type recombinant human …; experiment: cell-based or functional assay
[4] = molecular target: T4, human galectin-10-His (recombinant …); experiment: ELISA, scFv-hFc on coated galectin-10-His (0.2 ug/mL)
Experimental: In a similar setup to that used during the initial screening, the relative binding properties of the 12 scFv-human Fc clones were analyzed by ELISA. Briefly, a Maxisorp plate was coated with galectin-10-His at 0.2 μg/mL and blocked with casein, before being incubated with a serial dilution of the scFv-human Fc fusion molecules. After several washing steps, detection of the bound scFv-human Fc was carried out with an anti-human Fc-HRP antibody. Absorbance was measured at 450 nm (reference at 620 nm) with Tecan instrument. Finally, the raw data (OD values) were plotted on GraphPad Prism 7.01. The EC50 value of each compound was calculated with a non-linear regression (log(agonist) vs. response Variable slope (four parameters)).

[5] = molecular target: T4, human galectin-10-His (recombinant …); experiment: SPR Biacore T3000, scFv-hFc captured by anti-human Fc, galectin-10-His as analyte
Experimental: In order to determine the binding properties (on-rate/off-rate) of the scFv-human Fc panel, their binding capacity to galectin-10 was analyzed on Biacore T3000. For this purpose, a capture approach was set up. A CM5 Chip was coated with polyclonal anti-human Fc at 8000 RU, then a fixed concentration of the scFv-human Fc panel (1.5 μg/mL), diluted in HBS-EP pH7.4, were captured to reach a binding signal around 150 RU. Finally, a serial dilution of galectin-10-His (serial dilution, 1 over 2 from 5 μg/mL, 6 points of dilution) diluted in HBS-EP pH7.4 was injected. Raw data were analyzed via BIA evaluation software with a blank subtraction (4-3). The kd/KD and Rmax of each scFv-human Fc for galectin-10-His was determined using the Fit Kinetics simultaneous ka/kd/Binding with mass transfer/Local Rmax on BIA evaluation software.

human galectin-10-His [6] = molecular target: T2, human galectin-10-His; experiment: ELISA, coated antigen 0.2 ug/mL
Experimental: In a similar setup to that used during the initial screening, the relative binding properties of the 11 new scFv-human Fc clones were analyzed by ELISA. Briefly, a Maxisorp plate was coated overnight with human or cynomolgus WGS or YRT isoforms of galectin-10-His at 0.2 μg/mL and blocked with PBS 1% casein, before being incubated with a serial dilution of the scFv-human Fc fusion molecules (from 100 nM, dilution 1/5, 8 points of dilutions). After several washing steps, detection of the bound scFv-human Fc was carried out with an anti-human Fc-HRP antibody (Jackson ImmunoResearch, Catalog 109-035-008). Absorbance was measured at 450 nm (reference at 620 nm) with Tecan instrument. Finally, the raw data (OD values) were plotted on GraphPad Prism 7.01. The EC50 values of each clone, calculated with a non-linear regression (log(agonist) vs. response Variable slope (four parameters)) are reported in Table 19 below. As a positive control, clone 6F05 from the previous galectin-10 antibody panel was included.

| Binder | 50% crystal dissolution (min), 50 uM [1] [min] | 90% crystal dissolution (min), 50 uM [1] [min] | Bmax (human galectin-10-His [2]) [OD] | EC50 (human galectin-10-His [2]) [nM] | 100% Solubilization of CLC (Conc uM) [3] [µM] | Bmax (OD values) [4] [OD] | EC50 [4] [nM] | Kd [5] [nM] | koff [5] [s⁻¹] | Bmax (human galectin-10-His [6]) [OD] | EC50 (human galectin-10-His [6]) [nM] |
| --- | --- | --- | --- | --- | --- | --- | --- | --- | --- | --- | --- |
| 7B07 Fab (Fab, V domains shown, Fab with human CH1 (including part of the hinge region) and human lambda constant domain; also called 7B7; 7B07 hFab) VH: QVQLVESGGGLVQPGGSLRLSCAASGFTFRSYDMSWVRQAPGKGPEWVSAIKNGGGITYYADSVKGRFTISRDNAKNTLYLQMNSLKPEDTAVYYCATTHGIGTLGFGSWGQGTQVTVSS VL: SYELTQSASVSVALTQTAKITCDGNNIGSKSAQWYQQKPGQAPALVIYADEYRPEGIPERFSGSNSGNTATLIISGAQAEDEADYYCQVWDGSAAVFGRGTHLTVL | 15.1 | 54.1 | 0.65 | 24.4 | – | – | – | – | – | – | – |
| 4H10 scFv-human Fc (Fc fusion, about 100 kDa on SDS-PAGE; also called 4H10 ScFv-hFc; not shown: CH2-CH3 constant domains of human IgG1 (vector pUPEX50)) scFv: QVQLVESGGGLVQPGGSLRLSCAASGFTFDDYAMSWVRQAPGKGLEWVSAISWNGGSTYYAESMKGRFTISRDNAKNTLYLQMNSLKSEDAAVYYCAKDLSASGSYYHTFGSWGQGTQVTVSSGGGGSGGGGSGGGGSQAGLTQPPSVAGTLGKTVTISCAGTSSDVGYGDYVSWYQHIPGTAPKLLIYKVKTRASGIPDRFSGSKSGNTASLTISGLQSGDESDYYCASYKNGGTAVFGGGTHLTVL | – | – | – | – | 6 | 1.3 | 0.2 | 1.55 | 0.00277 | – | – |
| 4G05 scFv-human Fc (Fc fusion, about 100 kDa on SDS-PAGE; also called 4G05 ScFv-hFc; not shown: CH2-CH3 constant domains of human IgG1 (vector pUPEX50)) scFv: QLQVVESGGGLVQTGGSLTLSCTTSGFTFSRYWMIWVRQAPGKGLEWVSSIYNDGGNTYYADSVKGRFTISRDNSENTLYLQMNSLKSEDTAVYYCAKLKAAYYGMDYWGKGTLVTVSSGGGGSGGGGSGGGGSSSALTQPSAVSVSLGQTARITCQGANLGRYYGIWYQQKPGQAPVQVIYGDSNRPSGIPERFSGSSSGGTATLTISGAQAEDEADYYCQSYESSTSPVFGGGTHLTVL | – | – | – | – | 4.36 | 3.03 | 0.09 | 0.911 | 0.0437 | – | – |
| 10A06 Fab (Fab, V domains shown, Fab with human CH1 (including part of the hinge region) and human lambda constant domain; also called 10A06 hFab) VH: QVQLVESGGGLVQPGGSLRLSCAASGFTFGNYDMSWVRQAPGKGPEWVSDINSGGGSTYYADSVKGRFTISRDNAKNSLLLQMNSLKPEDTAVYYCATGYTGYYYWGQGTQVTVSS VL: QTVVTQEPSLSVSPGGTVTLTCGLSSGSVTSSNYPAWYQQTPGQAPRALIYSINSRHSGVPDRFSGSISGNKAALTITGAQAEDEADYYCTLYMGTGSNNVVFGGGTHLTVL | 49.1 | > 120 | 0.36 | 89.5 | – | – | – | – | – | – | – |
| 6F05 scFv-human Fc (Fc fusion, Positive control from the first panel; also called 6F5; not shown: CH2-CH3 constant domains of human IgG1 (pUPEX50 scFv-Fc fusion vector)) scFv: QLQLVESGGGLVQPGGSLRLSCAASGFTFSSYAMSWVRQAPGKGLEWVSAINSGGGSTSYADSVKGRFTISRDNAKNTLYLQMNSLKPEDTAVYYCATPGDRLWYYRYDYWGQGTQVTVSSGGGGSGGGGSGGGGSQAGLTQPPSVSGTLGKAVTISCAGTSSDIGYGNYVSWYQQLPGTAPKLLIYKVSRRASGVPDRFSGSKSGNTASLSISGLQSEDEADYYCASYRYRNNVVFGGGTHLTVL | – | – | – | – | – | – | – | – | – | 2.4 | 0.02 |
| 4B10 scFv-human Fc (Fc fusion, about 100 kDa on SDS-PAGE; also called 4B10 ScFv-hFc; not shown: CH2-CH3 constant domains of human IgG1 (vector pUPEX50)) scFv: QLQLVESGGGLVQPGGSLRLSCAASGFTFSNYWMYWVRQAPGKGLEWVSAIDVGGGTTDYAGSVKGRFTISRDNTKSTVYLQMNTLKPEDTALYYCLRGGSYYGGMDYWGKGTLVTVSSGGGGSGGGGSGGGGSQSALTQPSAVSVSLGQTARITCQGAKLGRYYGIWYQQKPGQAPVQVIYGDSNRPSGIPERFSGSSSGGTATLTISGAQAEDEADYYCQSYESSTSPVFGGGTHLTVL | – | – | – | – | 6.14 | 1.28 | 0.08 | 1.94 | 0.0128 | – | – |
